Experimental data: US7365239 (Stanford University, dated 2008)

Molecular target: T1, full-length mouse RabGEF1 expressed as GAL-4 activation domain fusion protein (mouse, UniProt Q9JM13 1-491)
T1 construct: mature; Yeast two-hybrid prey in pACT2; also called Rabex-5
Test: yeast two-hybrid, beta-galactosidase assays
Source text: FIG. 2A-2C. Homology of RabGEF1 with members of a Rab5 binding protein family and direct interaction of RabGEF1 with Ras. (a) Alignment of amino acid sequences of mouse RabGEF1 (SEC ID NO:5) with the Vps9p domains of Vps9p (SEC ID NO:6), Rin1, (SEC ID NO:7), and JC265(SEC ID NO:8). The Vps9p domains of Vps9p, RIN1, and JC265 and the proposed GBH motifs I(SEC ID NO:9), II(SEC ID NO:10), and III(SEC ID NO:11) illustrated here represent those previously described. Identical amino acids or conservative substitutions present in three or four proteins are shaded. […] Different segments of the mouse RabGEF1 protein (shaded areas are Vps9p domains; black areas are putative GBH motifs) were expressed as GAL-4 activation domain fusion proteins, whereas the mouse H-Ras and yeast Ras2p proteins were expressed as DNA-binding fusion proteins. Positive interactions were assessed with both a qualitative colony-lift β-galactosidase filter assay using X-gal as the substrate (Colony color) and a quantitative liquid culture β-galactosidase assay using chlorophenol red-β-D-galactopyranoside as the substrate (Relative β-Gal units). […] The pulled-down RabGEF1 was detected using an anti-RabGEF1 antibody. […]
Yeast two-hybrid assay. […] The entire open reading frame and different segments of the open reading frame of the mouse RabGEF1 cDNA were separately subcloned, in frame, into the pACT2 vector.

T1 sequence (Q9JM13 whole entry, the tested form may be a part): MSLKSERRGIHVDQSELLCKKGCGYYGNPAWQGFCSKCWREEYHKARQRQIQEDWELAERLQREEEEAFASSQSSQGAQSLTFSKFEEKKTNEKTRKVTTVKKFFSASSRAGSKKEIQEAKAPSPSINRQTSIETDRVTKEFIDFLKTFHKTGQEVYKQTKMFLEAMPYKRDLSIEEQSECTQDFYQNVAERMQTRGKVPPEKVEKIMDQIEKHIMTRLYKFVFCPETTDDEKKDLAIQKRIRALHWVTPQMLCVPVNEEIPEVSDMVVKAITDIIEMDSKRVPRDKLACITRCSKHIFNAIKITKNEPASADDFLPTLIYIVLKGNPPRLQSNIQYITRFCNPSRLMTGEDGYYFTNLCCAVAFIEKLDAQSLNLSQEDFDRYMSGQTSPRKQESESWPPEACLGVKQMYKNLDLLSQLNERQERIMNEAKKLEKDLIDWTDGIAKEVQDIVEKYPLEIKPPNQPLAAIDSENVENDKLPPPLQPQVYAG

B1: yeast Ras2p expressed as DNA-binding fusion protein (other, UniProt P04386 1-147, looked up)
chain: MKLLSSIEQACDICRLKKLKCSKEKPKCAKCLKNNWECRYSPKTKRSPLTRAHLTEVESRLERLEQLFLLIFPREDLDMILKMDSLQDIKALLTGLFVQDNVNKDAVTDRLASVETDMPLTLRQHRISATSSSEESSNKGQRQLTVSMPLNKSNIREYKLVVVGGGGVGKSALTIQLTQSHFVDEYDPTIEDSYRKQVVIDDEVSILDILDTAGQEEYSAMREQYMRNGEGFLLVYSITSKSSLDELMTYYQQILRVKDTDYVPIVVVGNKSDLENEKQVSYQDGLNMAKQMNAPFLETSAKQAINVEEAFYTLARLVRDEGGKYNKTLTENDNSKQTSQDTKGSGANSVPRNSGGHRKMSNAANGKNVNSSTTVVNARNASIESKTGLAGNQATNGKTQTDRTNIDNSTGQAGQANAQSANTVNNRVNNNSKAGQVSNAKQARKQQAAPGGNTSEASKSGSGGSCIIS
  binding result: no binding
